We go through one molecule from publication doi:10.1101/2024.05.21.594841 (bioRxiv, 2024).

Where only a bound is given, the exact number is not on record here.

Common to all, as to test: split reporter
One assay has as its target T1, Yos9p (S. cerevisiae, UniProt Q99220 22-542).
T1 sequence: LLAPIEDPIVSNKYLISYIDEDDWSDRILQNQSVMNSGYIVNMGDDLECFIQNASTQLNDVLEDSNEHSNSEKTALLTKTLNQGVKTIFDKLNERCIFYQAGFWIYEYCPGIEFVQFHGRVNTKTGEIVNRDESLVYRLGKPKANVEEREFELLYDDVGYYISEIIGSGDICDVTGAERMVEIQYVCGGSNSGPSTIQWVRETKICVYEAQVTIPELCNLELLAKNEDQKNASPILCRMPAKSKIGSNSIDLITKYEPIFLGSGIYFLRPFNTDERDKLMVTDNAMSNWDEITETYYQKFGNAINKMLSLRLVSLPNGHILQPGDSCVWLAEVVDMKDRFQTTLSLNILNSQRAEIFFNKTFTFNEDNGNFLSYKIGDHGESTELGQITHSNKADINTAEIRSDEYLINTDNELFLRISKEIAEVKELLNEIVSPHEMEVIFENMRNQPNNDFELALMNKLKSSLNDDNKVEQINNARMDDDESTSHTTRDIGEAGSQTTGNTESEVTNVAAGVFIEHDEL

Another assay deals with T2, Kre5p (S. cerevisiae, UniProt P22023 18-1365).
T2 sequence: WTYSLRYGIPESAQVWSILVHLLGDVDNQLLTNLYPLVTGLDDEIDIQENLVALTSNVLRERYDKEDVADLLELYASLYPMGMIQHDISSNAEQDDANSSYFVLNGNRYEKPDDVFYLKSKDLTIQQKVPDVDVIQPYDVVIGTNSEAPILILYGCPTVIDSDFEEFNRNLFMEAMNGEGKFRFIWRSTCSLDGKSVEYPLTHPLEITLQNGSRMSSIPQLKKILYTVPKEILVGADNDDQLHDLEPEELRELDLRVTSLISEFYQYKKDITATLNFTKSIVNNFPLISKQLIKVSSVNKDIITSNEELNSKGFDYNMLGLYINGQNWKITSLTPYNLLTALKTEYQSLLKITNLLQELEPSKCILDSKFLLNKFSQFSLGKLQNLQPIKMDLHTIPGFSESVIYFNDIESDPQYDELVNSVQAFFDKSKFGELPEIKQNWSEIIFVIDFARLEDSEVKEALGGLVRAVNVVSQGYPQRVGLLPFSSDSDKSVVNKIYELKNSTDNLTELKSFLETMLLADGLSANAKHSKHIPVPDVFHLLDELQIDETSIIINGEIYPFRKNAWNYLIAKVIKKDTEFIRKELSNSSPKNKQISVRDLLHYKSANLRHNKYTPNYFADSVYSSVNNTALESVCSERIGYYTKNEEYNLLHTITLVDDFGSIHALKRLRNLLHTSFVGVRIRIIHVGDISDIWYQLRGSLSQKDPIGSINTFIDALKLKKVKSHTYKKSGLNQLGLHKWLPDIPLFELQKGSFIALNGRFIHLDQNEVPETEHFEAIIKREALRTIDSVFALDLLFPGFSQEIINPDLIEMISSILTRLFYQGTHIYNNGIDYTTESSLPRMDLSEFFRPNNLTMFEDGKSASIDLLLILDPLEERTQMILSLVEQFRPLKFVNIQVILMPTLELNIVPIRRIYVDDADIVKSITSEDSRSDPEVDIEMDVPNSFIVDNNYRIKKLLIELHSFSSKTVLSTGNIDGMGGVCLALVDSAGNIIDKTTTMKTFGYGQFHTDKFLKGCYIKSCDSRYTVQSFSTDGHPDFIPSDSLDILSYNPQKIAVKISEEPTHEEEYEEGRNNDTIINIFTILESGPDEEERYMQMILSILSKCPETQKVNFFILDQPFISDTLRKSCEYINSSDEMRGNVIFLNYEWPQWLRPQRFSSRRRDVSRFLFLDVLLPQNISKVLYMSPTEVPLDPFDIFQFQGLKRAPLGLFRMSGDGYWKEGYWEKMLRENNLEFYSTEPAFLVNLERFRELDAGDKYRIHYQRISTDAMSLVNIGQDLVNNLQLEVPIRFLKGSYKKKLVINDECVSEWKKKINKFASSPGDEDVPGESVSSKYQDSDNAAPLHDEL

Another assay deals with T3, Qcr2p (S. cerevisiae, UniProt P07257 17-368).
T3 sequence: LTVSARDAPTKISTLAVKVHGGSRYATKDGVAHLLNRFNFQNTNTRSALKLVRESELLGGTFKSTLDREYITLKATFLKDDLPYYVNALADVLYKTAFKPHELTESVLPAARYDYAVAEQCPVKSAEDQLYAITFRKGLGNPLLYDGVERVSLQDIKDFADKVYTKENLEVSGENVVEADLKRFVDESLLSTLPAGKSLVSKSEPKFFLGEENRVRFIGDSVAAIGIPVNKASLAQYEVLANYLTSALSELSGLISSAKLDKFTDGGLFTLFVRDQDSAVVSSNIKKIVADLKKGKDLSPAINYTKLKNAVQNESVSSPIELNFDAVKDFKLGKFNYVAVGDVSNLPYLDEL

B1: Lhs1p (natural protein)
chain: AVLGVDYGQQNIKAIVVSPQAPLELVLTPEAKRKEISGLSIKRLPGYGKDDPNGIERIYGSAVGSLATRFPQNTLLHLKPLLGKSLEDETTVTLYSKQHPGLEMVSTNRSTIAFLVDNVEYPLEELVAMNVQEIANRANSLLKDRDARTEDFVNKMSFTIPDFFDQHQRKALLDASSITTGIEETYLVSEGMSVAVNFVLKQRQFPPGEQQHYIVYDMGSGSIKASMFSILQPEDTTQPVTIEFEGYGYNPHLGGAKFTMDIGSLIENKFLETHPAIRTDELHANPKALAKINQAAEKAKLILSANSEASINIESLINDIDFRTSITRQEFEEFIADSLLDIVKPINDAVTKQFGGYGTNLPEINGVILAGGSSRIPIVQDQLIKLVSEEKVLRNVNADESAVNGVVMRGIKLSNSFKTKPLNVVDRSVNTYSFKLSNESELYDVFTRGSAYPNKTSILTNTTDSIPNNFTIDLFENGKLFETITVNSGAIKNSYSSDKCSSGVAYNITFDLSSDRLFSIQEVNCICQSENDIGNSKQIKNKGSRLAFTSEDVEIKRLSPSERSRLHEHIKLLDKQDKERFQFQENLNVLESNLYDARNLLMDDEVMQNGPKSQVEELSEMVKVYLDWLEDASFDTDPEDIVSRIREIGILKKKIELYMDSAKEPLNSQQFKGMLEEGHKLLQAIETHKNTVEEFLSQFETEFADTIDNVREEFKKIKQPAYVSKALSTWEETLTSFKNSISEIEKFLAKNLFGEDLREHLFEIKLQFDMYRTKLEEKLRLIKSGDESRLNEIKKLHLRNFRLQKRKEEKLKRKLEQEKSRNNNETESTVINSADDKTTIVNDKTTESNPSSEEDILHDEL
As to B1, the normalized interacting score in the assay with Yos9p is greater than 40%; in the assay with Kre5p it was greater than 40%; in the assay with Qcr2p it was 22%.
